Patent US6706762, “Methods for the use of inhibitors of co-repressors for the treatment of neoplastic diseases” (The Salk Institute for Biological Studies)

Key:
RARα/RXRα heterodimer = RARα/RXRα heterodimer (UniProt P10276;P19793 P10276:1-462,P19793:1-462); experiment: EMSA; with GST-SMRT-IDII; SMRT dissociated by ATRA; 100 mM KCl, 16.7 mM Tris pH 7.5, poly(dI:dC), room temperature; settings: label: 32P
From the text: The protein-DNA complexes were then resolved on a 4.5% native polyacrylamide gel and visualized by autoradiography.

[1] = biological target: RARα 411/RXRα heterodimer (Homo sapiens, UniProt P10276;P19793 P10276:1-410,P19793:1-462, RARα stop codon introduced at amino acid 411); experiment: EMSA; with GST-SMRT-IDII; impaired dissociation of SMRT by ATRA; settings: label: 32P
Chain of RARα 411/RXRα heterodimer (P10276 1-410, change not shown, chain 1 of 2): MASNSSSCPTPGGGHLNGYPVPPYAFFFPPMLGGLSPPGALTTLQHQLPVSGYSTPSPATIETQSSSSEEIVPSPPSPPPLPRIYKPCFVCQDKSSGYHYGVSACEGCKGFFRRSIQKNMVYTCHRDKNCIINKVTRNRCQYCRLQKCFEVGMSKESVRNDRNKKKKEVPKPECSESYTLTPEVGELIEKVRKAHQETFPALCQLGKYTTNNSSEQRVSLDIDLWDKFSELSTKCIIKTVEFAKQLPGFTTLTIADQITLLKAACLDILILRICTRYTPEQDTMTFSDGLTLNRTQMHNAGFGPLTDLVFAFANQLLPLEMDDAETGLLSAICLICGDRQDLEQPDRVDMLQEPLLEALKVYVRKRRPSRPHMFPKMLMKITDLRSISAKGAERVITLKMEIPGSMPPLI
Chain of RARα 411/RXRα heterodimer (P19793 whole entry, change not shown, chain 2 of 2): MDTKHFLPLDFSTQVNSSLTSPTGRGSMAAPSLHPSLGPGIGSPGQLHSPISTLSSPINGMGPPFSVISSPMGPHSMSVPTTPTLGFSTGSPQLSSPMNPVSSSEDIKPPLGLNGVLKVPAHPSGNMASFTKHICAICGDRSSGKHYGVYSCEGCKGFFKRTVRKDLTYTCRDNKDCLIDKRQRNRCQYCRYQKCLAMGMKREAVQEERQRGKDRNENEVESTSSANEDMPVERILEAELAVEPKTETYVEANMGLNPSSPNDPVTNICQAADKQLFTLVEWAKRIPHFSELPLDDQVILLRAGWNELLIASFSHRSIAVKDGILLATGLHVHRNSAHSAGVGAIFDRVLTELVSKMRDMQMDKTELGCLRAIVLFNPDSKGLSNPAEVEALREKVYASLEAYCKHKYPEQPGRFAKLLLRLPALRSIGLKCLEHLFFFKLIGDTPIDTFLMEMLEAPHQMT

Chain of RARα/RXRα heterodimer (P10276 whole entry, chain 1 of 2): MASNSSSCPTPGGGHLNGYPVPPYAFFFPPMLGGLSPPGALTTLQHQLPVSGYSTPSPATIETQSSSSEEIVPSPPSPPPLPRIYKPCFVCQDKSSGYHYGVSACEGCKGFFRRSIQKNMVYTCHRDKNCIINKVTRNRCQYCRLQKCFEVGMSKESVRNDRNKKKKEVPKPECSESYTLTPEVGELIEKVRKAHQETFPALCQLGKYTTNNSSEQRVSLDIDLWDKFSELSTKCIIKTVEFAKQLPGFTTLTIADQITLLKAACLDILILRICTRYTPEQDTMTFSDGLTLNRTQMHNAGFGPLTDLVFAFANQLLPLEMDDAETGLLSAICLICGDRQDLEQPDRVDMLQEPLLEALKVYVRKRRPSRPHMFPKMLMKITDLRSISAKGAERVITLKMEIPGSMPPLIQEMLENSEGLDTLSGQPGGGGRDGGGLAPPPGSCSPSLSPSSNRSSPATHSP
Chain of RARα/RXRα heterodimer (P19793 whole entry, chain 2 of 2): as the sequence (P19793 whole entry, change not shown, chain 2 of 2) above

B1: DR5 retinoid response element (dsDNA)
DNA 1: TCGACTCAGGTCACCACGAGGTCAGAGTC
DNA 2: GACTCTGACCTCGTGGTGACCTGAGTCGA
binding result (RARα/RXRα heterodimer): binds | binding result [1]: binds
